Experimental findings from patent US7018836 (UNIVERSITY OF IOWA RESEARCH FOUNDATION, dated 2006) are described below.

The target of the assay is T1, HIS-tagged human P-TEFb small subunit PITALRE (human, UniProt P50750 1-372).
T1 construct: also called HBS; HIS-tagged human kinase subunit (PITALRE)
The assay is described as follows: co-expression in baculovirus, co-recovery with the HIS-tagged small subunit from a nickel column.

T1 sequence (P50750 whole entry): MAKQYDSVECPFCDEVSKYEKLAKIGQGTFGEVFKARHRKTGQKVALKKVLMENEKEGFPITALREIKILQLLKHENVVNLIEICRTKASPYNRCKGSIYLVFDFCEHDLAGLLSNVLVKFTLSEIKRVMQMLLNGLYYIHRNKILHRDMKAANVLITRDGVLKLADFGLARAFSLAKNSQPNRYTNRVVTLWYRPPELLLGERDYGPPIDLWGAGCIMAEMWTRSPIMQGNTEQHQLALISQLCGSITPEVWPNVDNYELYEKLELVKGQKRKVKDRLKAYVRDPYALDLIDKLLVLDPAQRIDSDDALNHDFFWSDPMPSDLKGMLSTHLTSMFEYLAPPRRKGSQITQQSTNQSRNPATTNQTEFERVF

B1: Drosophila P-TEFb small subunit with a HIS-tag at the carboxyl-terminus (enzyme)
chain: MAHMSHMLQQPSGSTPSNVGSSSSRTMSLMEKQKYIEDYDFPYCDESNKYEKVAKIGQGTFGEVFKAREKKGNKKFVAMKKVLMDNEKEGFPITALREIRILQLLKHENVVNLIEICRTKATATNGYRSTFYLVFDFCEHDLAGLLSNMNVKFSLGEIKKVMQQLLNGLYYIHSNKILHRDMKAANVLITKHGILKLADFGLARAFSIPKNESKNRYTNRVVTLWYRPPELLLGDRNYGPPVDMWGAGCIMAEMWTRSPIMQGNTEQQQLTFISQLCGSFTPDVWPGVEELELYKSIELPKNQKRRVKERLRPYVKDQTGCDLLDKLLTLDPKKRIDADTALNHDFFWTDPMPSDLSKMLSQHLQSMFEYLAQPRRSNQMRNYHQQLTTMNQKPQDNSMIDRVW
notes: also called DBS; Drosophila P-TEFb small (kinase) subunit; not shown: HIS-tag added to the carboxyl-terminus
In the case of B1, the binding result is recorded as “no binding”.
